IntAct's records for PubMed 17662948

Biological target: rd23b_human RAD23B (UniProt P54727)
Sequence (P54727 whole entry): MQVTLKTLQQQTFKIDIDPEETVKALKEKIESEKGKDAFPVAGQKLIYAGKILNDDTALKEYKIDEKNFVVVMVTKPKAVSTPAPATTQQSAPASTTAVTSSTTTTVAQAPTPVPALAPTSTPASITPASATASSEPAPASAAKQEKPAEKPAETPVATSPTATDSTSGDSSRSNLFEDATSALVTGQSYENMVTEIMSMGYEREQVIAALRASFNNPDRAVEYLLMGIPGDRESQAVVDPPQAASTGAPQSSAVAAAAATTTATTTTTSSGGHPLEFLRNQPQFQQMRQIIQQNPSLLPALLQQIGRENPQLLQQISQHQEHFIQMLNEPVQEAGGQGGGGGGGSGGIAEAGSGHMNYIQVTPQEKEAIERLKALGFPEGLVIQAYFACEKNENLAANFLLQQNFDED

Paired box protein Pax-3 (Mus musculus), P24610 K475R, sequence (P24610 whole entry K475R): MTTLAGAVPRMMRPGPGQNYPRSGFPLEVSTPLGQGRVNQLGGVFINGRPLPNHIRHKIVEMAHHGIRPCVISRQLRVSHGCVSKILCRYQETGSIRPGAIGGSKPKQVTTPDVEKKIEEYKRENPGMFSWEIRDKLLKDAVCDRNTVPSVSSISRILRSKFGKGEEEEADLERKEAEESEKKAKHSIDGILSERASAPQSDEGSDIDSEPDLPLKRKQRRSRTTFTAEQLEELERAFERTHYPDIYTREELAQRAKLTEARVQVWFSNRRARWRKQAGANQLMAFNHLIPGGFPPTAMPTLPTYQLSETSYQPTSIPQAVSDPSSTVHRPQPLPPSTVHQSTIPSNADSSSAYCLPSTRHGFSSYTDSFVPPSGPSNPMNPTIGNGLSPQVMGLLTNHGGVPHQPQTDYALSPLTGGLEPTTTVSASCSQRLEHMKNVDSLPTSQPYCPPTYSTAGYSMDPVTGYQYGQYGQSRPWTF
Paired box protein Pax-3 (Mus musculus), P24610 K437R, sequence (P24610 whole entry K437R): as the sequence (P24610 whole entry K475R) above, with K437R, R475K counted along it

Substance | effect of a mutation on the interaction
Paired box protein Pax-3 (Mus musculus), P24610 K437R | decreasing interaction
Paired box protein Pax-3 (Mus musculus), P24610 K475R | decreasing interaction
